What was measured:
[1] = molecular target: HA-Smad3 (wild type) (human, UniProt P84022 1-425); assay: cell-based or functional assay
[2] = molecular target: HA-Smad2 (wild type) (human, UniProt Q15796 1-467); assay: cell-based or functional assay
Chain of HA-Smad2 (wild type) (Q15796 whole entry): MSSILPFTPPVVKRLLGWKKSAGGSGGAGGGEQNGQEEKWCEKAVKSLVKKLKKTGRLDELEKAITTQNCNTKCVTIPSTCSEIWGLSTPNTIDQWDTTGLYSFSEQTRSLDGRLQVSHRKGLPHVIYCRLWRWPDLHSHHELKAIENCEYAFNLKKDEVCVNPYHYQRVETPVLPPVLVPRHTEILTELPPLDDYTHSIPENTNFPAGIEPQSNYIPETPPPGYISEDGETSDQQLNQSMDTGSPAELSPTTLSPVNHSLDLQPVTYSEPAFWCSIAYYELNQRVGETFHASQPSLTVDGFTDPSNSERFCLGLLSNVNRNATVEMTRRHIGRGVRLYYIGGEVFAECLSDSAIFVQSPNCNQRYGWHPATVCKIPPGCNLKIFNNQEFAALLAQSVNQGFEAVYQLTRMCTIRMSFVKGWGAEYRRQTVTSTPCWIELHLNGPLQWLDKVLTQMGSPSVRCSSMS

Chain of HA-Smad3 (wild type) (P84022 whole entry): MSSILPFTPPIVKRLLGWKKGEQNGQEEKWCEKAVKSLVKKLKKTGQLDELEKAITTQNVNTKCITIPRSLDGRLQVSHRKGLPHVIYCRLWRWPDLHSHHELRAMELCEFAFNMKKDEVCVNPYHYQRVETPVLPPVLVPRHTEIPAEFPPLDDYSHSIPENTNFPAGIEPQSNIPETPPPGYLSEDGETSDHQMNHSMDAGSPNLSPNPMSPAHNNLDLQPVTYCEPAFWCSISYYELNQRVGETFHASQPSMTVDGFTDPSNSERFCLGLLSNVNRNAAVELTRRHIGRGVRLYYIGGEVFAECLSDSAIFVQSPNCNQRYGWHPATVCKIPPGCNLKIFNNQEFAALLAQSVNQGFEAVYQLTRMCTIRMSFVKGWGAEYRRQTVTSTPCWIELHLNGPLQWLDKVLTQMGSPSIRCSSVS

B1: Flag-Foxd4l1.1 (natural protein, Xenopus, UniProt Q9PRJ8 1-352, looked up)
chain: MSFSQESGAHHHPQDYAGLSDEEDEIDILGEDDPCSLKSHFYLQPTHSVMGDSEMLSPSKLSCTESESDSSGESEGGTSKDSSTTPTGSKAKRTLVKPPYSYIALITMAILQSPHKKLTLSGICDFISSKFPYYKDKFPAWQNSIRHNLSLNDCFIKIPREPGNPGKGNYWTLDPASEDMFDNGSFLRRRKRFKRHQQEFFKDGLMMYNSLPYYRPYSAIQPQPVLQQTSLTCMAIPETLPMSTHLAPYPDIKRKVSYPAQGVHRGFKAQDADNHPNNSQSKCSFSIENIMRKPKEPEPNIQSFNSHWNYNHVFQRPSSCLLPAVLNLSTGPLLANTQGARQYNLIQFPGCY
In the case of B1, the “ChIP-qPCR: occupancy of HA-Smad3 on the AREs of the chrd promoter without and with co-injected Flag-Foxd4l1.1 (fold enrichment)” value [1] is reported as 4.02 fold and the “ChIP-qPCR: occupancy of HA-Smad2 on the AREs of the chrd promoter without and with co-injected Flag-Foxd4l1.1 (fold enrichment)” value [2] is reported as 7.3 fold.
